{"source": "IntAct's records for PubMed 22484091", "key": {"brox_human BROX [1]": {"molecular_target": "brox_human BROX (UniProt Q5VW32)", "sequence (Q5VW32 whole entry)": "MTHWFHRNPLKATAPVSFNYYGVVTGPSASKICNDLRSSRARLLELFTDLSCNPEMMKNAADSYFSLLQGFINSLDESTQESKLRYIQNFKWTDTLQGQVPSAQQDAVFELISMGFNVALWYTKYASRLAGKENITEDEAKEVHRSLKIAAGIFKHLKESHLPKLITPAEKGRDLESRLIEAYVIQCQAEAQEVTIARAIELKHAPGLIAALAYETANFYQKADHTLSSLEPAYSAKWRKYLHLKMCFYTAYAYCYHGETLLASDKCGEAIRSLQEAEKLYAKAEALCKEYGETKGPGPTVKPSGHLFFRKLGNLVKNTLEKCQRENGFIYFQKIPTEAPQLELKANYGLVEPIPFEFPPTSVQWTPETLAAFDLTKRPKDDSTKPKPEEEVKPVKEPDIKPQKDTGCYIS"}, "brox_human BROX [2]": {"molecular_target": "brox_human BROX (UniProt Q5VW32)", "remark": "listed apart in the source"}}}
{"substance": "Charged multivesicular body protein 5 (Homo sapiens), Q9NZZ3-1 F211A", "values": [{"measurement": "effect of a mutation on the interaction", "setting": "brox_human BROX [1]", "value": "decreasing interaction strength"}, {"measurement": "effect of a mutation on the interaction", "setting": "brox_human BROX [2]", "value": "disrupting interaction strength"}]}
{"substance": "Charged multivesicular body protein 5 (Homo sapiens), Q9NZZ3-1 L213A", "values": [{"measurement": "effect of a mutation on the interaction", "setting": "brox_human BROX [1]", "value": "disrupting interaction strength"}]}
{"substance": "Charged multivesicular body protein 5 (Homo sapiens), Q9NZZ3-1 P214G", "values": [{"measurement": "effect of a mutation on the interaction", "setting": "brox_human BROX [1]", "value": "decreasing interaction strength"}, {"measurement": "effect of a mutation on the interaction", "setting": "brox_human BROX [2]", "value": "disrupting interaction strength"}]}
